Source: the DeepSol protein solubility set

Test: soluble on expression in E. coli; label from the status in PepcDB or PDB records
In the case of “FLRDAPKHLNPDGEIRLIISDLAEHLHLRPSDFLDKAFAQAGLRVADMMKTKPKHKKAANPSDPLAFARTRETTFLYRLKKA”, the “soluble on expression in E. coli” value is reported as “not soluble”.
In the case of “MKEEKRSSTGFLVKQRAFLKLYMITMTEQERLYGLKLLEVLRSEFKEIGFKPNHTEVYRSLHELLDDGILKQIKVKKEGAKLQEVVLYQFKDYEAAKLYKKQLKVELDRSKKLIEKALSDNF”, the “soluble on expression in E. coli” value is reported as “soluble”.
In the case of “MGSDKIHHHHHHMDFMTALDIGASALSAERTSMNITSMNLANAKTTRTIGGGPYRRKAVVMAATEVDDPFSKHMQSALDRELRGVRVQHIVRDNRPFRQVYEPGHPDADANGYVKYPDINVVEEMANLMTSQRGYQASVSTIEAVKSMYTKALEIGRS”, the “soluble on expression in E. coli” value is reported as “not soluble”.
In the case of “MGHHHHHHSHMPLLVEGRRVRLPQSAGDLVRAHPPLEERARLLRGQSVQQVGPQGLLYVQQRELAVTSPKDGSISILGSDDATTCHIVVLRHTGNGATCLTHCDGTDTKAEVPLIMNSIKSFSDHAQCGRLEVHLVGGFSDDRQLSQKLTHQLLSEFDRQEDDIHLVTLCVTELNDREENENHFPVIYGIAVNIKTAEIYRASFQDRGPEEQLRAARTLAGGPMISIYDAETEQLRIGPYSWTPFPHVDFWLHQDDKQILENLSTSPLAEPPHFVEHIRSTLMFLKKHPSPAHTLFSGNKALLYKKNEDGLWEKISSPGS”, the “soluble on expression in E. coli” value is reported as “not soluble”.
In the case of “MGSDKIHHHHHHMDFRLRQMEIFRSVMLTGSINGAAKLLFISQPAVSRIIAHTEQTLGLKLFNRAKGKLIPTPEGVALFRQVDEFYEHALQVNNFARDLAQGATGTLNLSSSPCLSYTVMPRAIAQFIARYPKIRVVYHTSQLNCMATEVLSNKVDVAVAVMPIQHPNVKVEVFTTGKMACVLPKDHPLGSQTVLSLADVSAYPLIVHHPSITFGKLVSTAFRDAGLEMRSRVNVFQTDVACSLVRAGAGIAIVDEYTACAGAWHDLMQRPLAEPITLTPCIVRSAFDNQATHADKFIEILRGVAHAR”, the “soluble on expression in E. coli” value is reported as “not soluble”.
With “MGSDKIHHHHHHMTEKKIILADEPLKSPDQDKLGFAPFAKRIATVIQSVQLRESIVFAVYGKWGSGKTTFINFLTSYLNHDSSITIVKFDPWWFSEKEDLIRQFLSNLQFTLNKSTKFKDIAKMLKPYIETLGEIPKFGWIFKIASRFKKNLQKSVIETKEEIINRLKEKDGKIVVIIDDIDRLTAKEIRELFTIVKAIADFPNTVYILAFDKDIVIRALEKVQEGKGEDYLEKIIQIPIELPLADKTSIRKMLFEELDAVLSGTSNELFDSTYWRNVYWDGIDPFINTVRNVKRLINTIRVTYPSVKNEVNAVDFIAIETLRVFCPEVYSIVKDYPDMFCGYSGEIYDVSRRHIEFLKQFHQNWLSRLNFPDDLKENIKNLLKRLFPKFESVFENIYYGPDWEREWRKKYRICCKEIFPRFFIFSVPSDDLSKHEMDFILSSLHNKEALIEHLKRLATQIRSDGSTRLSIFLERMEDYASEISQDYIPVVIEVFFTIGDKLIIPEDENKSFLIPWGNDIRMERIIWRLLRRYDNNSKRFEVLKNAFKNGQALFMMVNVLILFWQQHRKYRDAKESDAILLDENHLKTLQEIVLDKIRKAVEEGSLLNTPSLPVILHQWREWANEDEVKEWVKEIVFSDEKLPIFLTKFLQKTVSWTETSRATNIYWQIDLNWLKDFINLDFLEKRCNEILSNDSIIGTLEDKQKLAIRLFLNEKTKSLDSSTEEQGKDG” the “soluble on expression in E. coli” value was “not soluble”.
With “MGSDKIHHHHHHVKRFDWYTEIHRLDAEADCRRITEILTTHEFPWDIEQALSLALYRTYAVPSIGQLLAETREFLDRTQRRSDDTALILTEIMRHGFEPGRGRDALRRMNQMHRSYDISNDDYLYVLSTFVVMPVRWINDLGYGWRRLTEHEITANTNYYRLLGKHMGIKEIPETYDEFYELFDSYEIAHFGYSEGGRAVSDATLRLMVDTVPRWQQPVFRKFTMALLDDRLIQAFRYDPPSRFWRTAAHLAMWLRAKIVRFMPPRVEPYRIENNPKIKSYPNGYDPRRIGTFPKGCPVPHDMVTIEIPETGARIPAPGQELAPQGQDARA” the “soluble on expression in E. coli” value was “not soluble”.
For “MGSDKIHHHHHHKGHRVTGSDANVYPPMSTQLEDQGIELIQGFDPSQLGEAGHYPDLVVIGNAMSRGNPCVEAVLNIGIPYTSGPQFLADHILPERWVLAVSGTHGKTSTSSMLAWILDDCGYEPGFLIGGVPQNFGVSARLGKTAFFVVEADEYDSAFFDKRSKFVHYHPRTLVINNLEFDHADIFADLAAIQKQFNHLVRTVPGEGKIVWPADSHAVKQTIDMGCWSEQETYHLAESANGWYGKALSDDCHRFEVFFDGESQGILEWDLIGQHNIENAMMAIAAARHVGVKPSAAIEALAKFMPPKRRLELLGTVNGVSVYDDFAHHPTAIATTLKGMRAKVGQSKITVVLEPRSNTMKSGVHKDTLAFSMMQADEAFLYQADTIDWNMKEAMEAAVIPVTVLHQIDDVVAKVTATAKAGDTIVVMSNGGFGGLHKKLLAALELRSTVELV”, the “soluble on expression in E. coli” value was “not soluble”.
With “MSKSENLYSAARELIPGGVNSPVRAFTGVGGTPLFIEKADGAYLYDVDGKAYIDYVGSWGPMVLGHNHPAIRNAVIEAAERGLSFGAPTEMEVKMAQLVTELVPTMDMVRMVNSGTEATMSAIRLARGFTGRDKIIKFEGCYHGHADCLLVKAGSGALTLGQPNSPGVPADFAKYTLTCTYNDLASVRAAFEQYPQEIACIIVEPVAGNMNCVPPLPEFLPGLRALCDEFGALLIIDEVMTGFRVALAGAQDYYGVVPDLTCLGKIIGGGMPVGAFGGRRDVMDALAPTGPVYQAGTLSGNPIAMAAGFACLNEVAQPGVHETLDELTTRLAEGLLEAAEEAGIPLVVNHVGGMFGIFFTDAESVTCYQDVMACDVERFKRFFHMMLDEGVYLAPSAFEAGFMSVAHSMEDINNTIDAARRVFAKL” the “soluble on expression in E. coli” value was “soluble”.
In the case of “MGSDKIHHHHHHMRKKLISILVDGVSADTFEKHAHRLPNMRHLAERGLRVRRLKSAVPATSVPGRATMLTGVGPETHGIYGNHIFRGDASVAPLAEDLLVPTIATHARQAGLDVAAIGQALVNPRDTSVYVSPWWLRGFMTGYRFSKMVTPEALAASRAIHDPEDRLAKAGLTEMDAFRDAADGGAPHLISGLALDQFLNRAVVALLGSDRPPDLLLTEIEMPDAFQHYLGYDSPAGIWSVEFADMLIGNLLAVLERTGRREDYVIAVASDHGHGFVDTAIFPEAIIPDMHWMTEGASLYVSLKAAGDLERVTERLLPYGVELWNDHHVPENLRGTVAMFVAPPRHSFEERPSDASGPLVATGSPHLISTHGFRPGSPEDDRMFILSGGGIAPKVIKAADADQFAPTLASVLGLPLEPYAGRSLIAEESPIARSPQSLELHLK”, the “soluble on expression in E. coli” value is reported as “not soluble”.
For “MGSDKIHHHHHHMFAERLERARKAAGLSMNALANEVGLSANAIKKYEHGTAMPSSSNLLKLAKALDVRTEYFFRPTKVKLEGVEYRKRASTPKKVLDRINGDVLEQAERWQELLELYPDSVKPIPEFTLPNELPEQITSIEQVEDLAIQMRHAWDLGLNPIHDMIDTLEAKGVMIITTDVETDKKFDGLAGKIGSTPVVVISTAQSGDRQRFTLAHELGHLVVHGRLVEALDEEKACNTFAGAFLLPTQTLIEHLGEKRRHIEPRELLMLKHEYGISMLAALFRAGQCGIITPATQKNLFMLFSKNGWRTEEPGKAYPHESTYLHKQLVYRALGEEYIGESKAAELLGMSVSSFHKERKLEVPIQSQLALEAKGAAASN”, the “soluble on expression in E. coli” value was “not soluble”.
In the case of “QVQLVESGGNLVQPGGSLRLSCAASGFTFGSFSMSWVRQAPGGGLEWVAGLSARSSLTHYADSVKGRFTISRDNAKNSVYLQMNSLRVEDTAVYYCARRSYDSSGYWGHFYSYMDVWGQGTLVTVS”, the “soluble on expression in E. coli” value is reported as “soluble”.
For “MMSGAEEPVAIIFPQSASDGVEVLYQEFSFGRYFNQIAAGVLRGIVQTRQPRQPLRILEVGGGTGGTTAWLLPELNGVPALEYHFTDISALFTRRAQQKFADYDFVKYSELDLEKEAQSQGFQAQSYDLIVAANVIHATRHIGRTLDNLRPLLKPGGRLLMREITQPMRLFDFVFGPLVLPLQDLDAREGELFLTTAQWQQQCRHAGFSKVAWLPQDGSPT”, the “soluble on expression in E. coli” value was “not soluble”.
With “MGHHHHHHSHMYSEIQRERADIGGLMARPEYREWNPELIKPKKLLNPVKASRSHQELHRELLMNHRRGLGVDSKPELQRVLEHRRRNQLIKKKKEELEAKRLQCPFEQELLRRQQRLNQLEKPPEKEEDHAPEFIKVRENLRRIATLTSEEREL” the “soluble on expression in E. coli” value was “not soluble”.
With “MGSDKIHHHHHHMSLFNLSLVTFEIDHEDCWSKLTSSFPVQVKTIFAKPSKGKDYILGMDEVKTYNRRVFKDFLKSFKKEKSIYEIIQILELDSRRGIYRILFKERYENMIMSIIENYMTLYIKDLIKEGNERLLLIMPSSDVTMLKRDLESIGKIHYFNAKLVNFNDFVPTFFDFSEQERNAVLHAIRLGYYEYPRRINLEELGKIMGISKPTLEEYLRKAEKKIMSKIFREFYQQDLLFHSPDY” the “soluble on expression in E. coli” value was “not soluble”.
With “SFKADLGTIGIQLHTTYSRRIRKVKVMDNRKEPPFFNEDNVGPFYFKLPFYDPMELFIETLTGTCFELRVSPFEAVISVKGKIQRLEGIPICQQHLIWNNMELEDDYCLNDYNISEGCTLKLVLAMRGGPISTRKVPVEDPLRELAEYMDSSRDEVWEKTSCNKQVTFLVYREGDQLNFFRVVDRGDGTLTPLSESLSGGSVYNLYTDEDEETEPSPSGQQIIENSITMNKMKLLKAKMENMNLSKKVKPLAVRQAFL” the “soluble on expression in E. coli” value was “soluble”.
With “MPFRSNNPITRDELLSRFFPQFHPVTTFNSGLSGGSFLIEHQGQRFVVRQPHDPDAPQSAFLRQYRALSQLPASIAPKPHLYLRDWMVVDYLPGAVKTYLPDTNELAGLLYYLHQQPRFGWRITLLPLLELYWQQSDPARRTVGWLRMLKRLRKAREPRPLRLSPLHMDVHAGNLVHSASGLKLIDWEYAGDGDIALELAAVWVENTEQHRQLVNDYATRAKIYPAQLWRQVRRWFPWLLMLKGGWFEYRWRQTGDQQFIRLADDTWRQLLIKQ” the “soluble on expression in E. coli” value was “not soluble”.
For “MGSDKIHHHHHHMNNTIPRWRGFNLLEAFSIKSTGNFKEEDFLWMAQWDFNFVRIPMCHLLWSDRGNPFIIREDFFEKIDRVIFWGEKYGIHICISLHRAPGYSVNKEVEEKTNLWKDETAQEAFIHHWSFIARRYKGISSTHLSFNLINEPPFPDPQIMSVEDHNSLIKRTITEIRKIDPERLIIIDGLGYGNIPVDDLTIENTVQSCRGYIPFSVTHYKAEWVDSKDFPVPEWPNGWHFGEYWNREKLLEHYLTWIKLRQKGIEVFCGEMGAYNKTPHDVVLKWLEDLLEIFKTLNIGFALWNFRGPFGILDSERKDVEYEEWYGHKLDRKMLELLRKY”, the “soluble on expression in E. coli” value was “soluble”.
In the case of “SPEIMKDLSINFGKALDTCKKELDLPDSINEDFYKFWKEDYEITNRLTGCAIKCLSEKLEMVDADGKLHHGNAREFAMKHGADDAMAKQLVDLIHGCEKSIPPNDDRCMEVLSIAMCFKKEIHNLKWAPNMEVVVGEVLAEV”, the “soluble on expression in E. coli” value is reported as “soluble”.
With “MEKDLQLRVNEKLDVENILKDLDKYTPKRRGWTWRQPAENLQMGPFIYKDASTPLENSVALPSAKYFGDIDPQPLPVITTEIASGRFEDDIRRMRMAAWHGADHIMVIRTAGQSHYDGLIEGTPQGIGGVPITRKQVRAQRKALDLIEEEVGRPINYHSYVSGVAGPDIAVMFAEEGVNGAHQDPQYNVLYRNINMIRSFIDACESKTIMAWADMAQIDGAHNANATAREAWKVMPELMVQHALNSIFSLKVGMKKSNICLSTVPPTAPPAPSMYLDLPYAVALREMFEGYRMRAQMNTKYMEASTREATVTHVLNLLISKLTRADIQSTITPDEGRNVPWHIYNIEACDTAKQALIGMDGLMDMVQLKREGVLGDTVRELKERAVLFMEEIIEAGGYFNAVEQGFFVDSGYYPERNGDGIARQINGGIGAGTVFERDEDYMAPVTAHFGYNNVKQYDEALVSEPSKLIDGCTLEVPEKIVYIDELDENDNVNVRMEETKEFRHSSMIKPEVEWQADGTVLLTMFLPTSKRVAEFAAIEFAKKMNLEEVEVINREVMQEAEGTRIELKGRVPFSIDINSLVIPPEPEILSEDEIREDIEKTPLKIVAATVGEDEHSVGLREVIDIKHGGIEKYGVEVHYLGTSVPVEKLVDAAIELKADAILASTIISHDDIHYKNMKRIHELAVEKGIRDKIMIGCGGTQVTPEVAVKQGVDAGFGRGSKGIHVATFLVKKRREMREGKSEDPNSSSVDKLAAALEHHHHHH” the “soluble on expression in E. coli” value was “soluble”.
